Measured values taken from PMC10570696, “DNA-translocation-independent role of INO80 remodeler in DNA damage repairs” (The Journal of Biological Chemistry, 2023).

Columns and labels:
[1] = target: human APE1 endonuclease (AP-endonuclease 1) (human) (UniProt P27695)
[2] = target: human APE1 endonuclease (AP-endonuclease 1) (human) (UniProt P27695); remark: listed apart in the source
INO80-C ΔN sub-complex = target: T1, INO80-C ΔN sub-complex (Saccharomyces cerevisiae, UniProt P53115); assay: NADH-coupled ATPase assay (pyruvate kinase / lactate dehydrogenase), absorbance at […] nm; assay type: biochemical; details: nucleosome-stimulated (0-320 nM 0N80 mononucleosomes, Xenopus laevis histones); 80 nM complex; 1 mM ATP (2 mM stated elsewhere in the source); 2 mM MgCl2, 50 mM NaCl, pH 8, 30 °C
T1 construct: ten-subunit sub-complex; Ino80 truncated (residues 470-1490, printed 'residue 470 from 1490') with C-terminal Twin-Strep tag; MultiBac baculovirus, High Five insect cells; with Actin-related protein 5; Chromatin-remodeling complex subunit IES6; Ino eighty subunit 2; RuvB-like protein 1; RuvB-like protein 2; Actin-related protein 4; Actin-like protein ARP8; Actin; Ino eighty subunit 4

human APE1 endonuclease (AP-endonuclease 1) (human), sequence (P27695 whole entry): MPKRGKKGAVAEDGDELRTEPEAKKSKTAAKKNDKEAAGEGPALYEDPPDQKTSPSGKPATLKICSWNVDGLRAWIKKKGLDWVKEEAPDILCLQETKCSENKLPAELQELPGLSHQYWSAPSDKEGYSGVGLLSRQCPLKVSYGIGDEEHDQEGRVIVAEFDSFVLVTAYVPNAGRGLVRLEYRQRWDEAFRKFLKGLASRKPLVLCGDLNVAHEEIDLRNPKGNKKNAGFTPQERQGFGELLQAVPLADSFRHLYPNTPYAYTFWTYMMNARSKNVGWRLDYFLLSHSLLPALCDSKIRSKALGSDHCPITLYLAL

Row | Compound | APE1 incision assay after pre-treatment of the APE1-INO80-C mixture at 37 °C for 20 min, with ATP: proportion of incised nucleosomes [1] [%] | APE1 incision assay: percent of dTHF(SHL-6) nucleosomes (100 nM) cleaved over 30 min by 5 nM APE1 with 25 nM INO80-C, with ATP (approximately 40% with APE1 alone) [2] [%] | NADH-coupled ATPase assay (pyruvate kinase / lactate dehydrogenase), absorbance (INO80-C ΔN sub-complex)
1 | endogenous yeast INO80-C complex (from UniProt P53115 1-1489; P53946 1-755; P32617 1-166; P40154 1-320; Q03940 1-463; Q12464 1-471; P80428 1-489; Q12386 1-881; P60010 1-375; Q08561 1-116; P35189 1-244; Q03435 1-203; P43579 1-692; Q12345 1-250; P40060 1-125) | 70 | 56 | 
2 | Nc1ncnc2c1ncn2[C@@H]1O[C@H](COP(=O)(O)OP(=O)(O)OP(=O)(O)O)[C@@H](O)[C@H]1O [ATP] |  |  | conducted measurements of nucleosome-stimulated ATPase activity of INO80-C ΔN through a NADH+-coupled assay
